{"source": "patent US20070036793A1", "about": "“Methods for use of an lkb1/strad7mo25 complex” (priority 2003, published 2007)", "key": {"[1]": {"target": "T1, T-loop peptide of AMPK (Example 3)", "T1 chain": "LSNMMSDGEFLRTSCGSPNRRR"}, "[2]": {"target": "T2, Flag-tagged STRADβ, Q9C0K7", "T2 chain": "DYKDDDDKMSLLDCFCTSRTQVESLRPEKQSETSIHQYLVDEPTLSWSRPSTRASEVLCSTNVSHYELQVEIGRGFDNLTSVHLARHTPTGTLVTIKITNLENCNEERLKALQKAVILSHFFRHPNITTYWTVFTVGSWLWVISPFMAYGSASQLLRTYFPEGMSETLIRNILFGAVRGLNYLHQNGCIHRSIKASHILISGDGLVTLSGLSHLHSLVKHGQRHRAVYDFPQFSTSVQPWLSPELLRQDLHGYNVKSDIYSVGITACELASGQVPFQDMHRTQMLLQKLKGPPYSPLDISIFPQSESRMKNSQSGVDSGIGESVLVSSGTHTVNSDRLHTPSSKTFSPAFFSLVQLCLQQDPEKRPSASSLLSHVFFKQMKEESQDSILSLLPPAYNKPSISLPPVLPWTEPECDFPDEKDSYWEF"}, "[3]": {"target": "T3, Flag-tagged STRADα, Q7RTN6", "T3 chain": "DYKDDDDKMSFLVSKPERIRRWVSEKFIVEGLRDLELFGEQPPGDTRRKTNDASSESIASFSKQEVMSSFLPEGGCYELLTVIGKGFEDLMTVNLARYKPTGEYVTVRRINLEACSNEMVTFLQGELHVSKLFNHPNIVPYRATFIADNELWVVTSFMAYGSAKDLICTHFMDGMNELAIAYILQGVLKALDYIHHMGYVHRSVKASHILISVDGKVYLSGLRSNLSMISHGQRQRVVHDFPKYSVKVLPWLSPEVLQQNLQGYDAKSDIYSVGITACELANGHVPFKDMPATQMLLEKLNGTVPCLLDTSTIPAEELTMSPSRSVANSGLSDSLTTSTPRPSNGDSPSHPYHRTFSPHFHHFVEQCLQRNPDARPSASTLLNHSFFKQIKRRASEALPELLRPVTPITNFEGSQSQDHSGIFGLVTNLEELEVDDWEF"}, "Flag-tagged STRADβ": {"target": "T4, Flag-tagged STRADβ (human, UniProt Q9C0K7 1-418)", "T4 construct": "pCMV5 vector; also called Flag-STRADβ; FLAG-STRADβ", "T4 sequence": "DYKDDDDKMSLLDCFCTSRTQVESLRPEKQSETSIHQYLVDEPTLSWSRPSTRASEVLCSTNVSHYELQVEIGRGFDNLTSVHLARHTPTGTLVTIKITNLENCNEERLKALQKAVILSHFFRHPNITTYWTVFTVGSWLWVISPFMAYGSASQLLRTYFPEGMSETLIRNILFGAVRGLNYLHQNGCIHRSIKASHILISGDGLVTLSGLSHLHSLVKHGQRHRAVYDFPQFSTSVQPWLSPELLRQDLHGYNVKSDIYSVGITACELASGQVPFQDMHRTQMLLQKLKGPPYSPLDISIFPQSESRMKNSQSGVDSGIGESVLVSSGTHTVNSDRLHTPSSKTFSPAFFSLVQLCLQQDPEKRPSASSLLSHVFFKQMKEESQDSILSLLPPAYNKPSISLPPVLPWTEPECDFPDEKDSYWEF", "assay": "heterotrimeric complex purified through GST-LKB1 from co-transfected 293 cells, colloidal blue gel and blots", "procedure": "(§1) FIG. 4. MO25α is associated with LKB1 through STRAD (A) 293 cells were transfected with plasmids encoding for the expression of the indicated GST fusion proteins together with Myc-MO25α. 36 h post transfection, the GST tagged proteins were affinity purified from the cell lysates using glutathione-Sepharose as described in Materials and Methods. […] 5 μg of total cell lysates prior to affinity purification were also subjected to immunoblotting with anti-Myc antibody to ensure that Myc-MO25α was expressed at similar levels in each co-transfection (lower panel). (B) N-terminal GST tagged LKB1 was expressed in 293 cells in the presence or absence of Flag-STRADα and purified as above. The purified proteins were subjected to SDS-polyacrylamide gel electrophoresis and visualised by Colloidal blue staining (upper panel). The faint protein band indicated, corresponding to an endogenous protein of 40-kDa (marked *), was identified by tryptic peptide mass-spectral fingerprint as endogenously expressed MO25α (with 38% sequence coverage). The purified proteins were also immunoblotted with the indicated antibodies (lower panels). (C) As above except that GST-LKB1 was expressed in 293 cells together with the indicated isoforms of Flag-STRAD and Myc-MO25 and the proteins visualised by colloidal blue staining were also immunoblotted with the indicated antibodies. For all panels, similar results were obtained in at least 3 separate experiments.\n(§2) Expression of GST-fusion proteins in 293 cells and affinity purification. 10-cm diameter dishes of 293 cells were transiently transfected with 3 to 10 μg of the pEBG-2T constructs using a modified calcium phosphate method (Alessi et al., 1996). 36 h post-transfection, the cells were lysed and the clarified lysates were incubated for 1 h on a rotating platform with glutathione-Sepharose (25 μl/dish of lysate) previously equilibrated in lysis Buffer."}, "Flag-tagged STRADα": {"target": "T5, Flag-tagged STRADα (human, UniProt Q7RTN6 1-431, limits assumed)", "T5 construct": "pCMV5 vector; also called Flag-STRADα; FLAG-STRADα", "T5 sequence": "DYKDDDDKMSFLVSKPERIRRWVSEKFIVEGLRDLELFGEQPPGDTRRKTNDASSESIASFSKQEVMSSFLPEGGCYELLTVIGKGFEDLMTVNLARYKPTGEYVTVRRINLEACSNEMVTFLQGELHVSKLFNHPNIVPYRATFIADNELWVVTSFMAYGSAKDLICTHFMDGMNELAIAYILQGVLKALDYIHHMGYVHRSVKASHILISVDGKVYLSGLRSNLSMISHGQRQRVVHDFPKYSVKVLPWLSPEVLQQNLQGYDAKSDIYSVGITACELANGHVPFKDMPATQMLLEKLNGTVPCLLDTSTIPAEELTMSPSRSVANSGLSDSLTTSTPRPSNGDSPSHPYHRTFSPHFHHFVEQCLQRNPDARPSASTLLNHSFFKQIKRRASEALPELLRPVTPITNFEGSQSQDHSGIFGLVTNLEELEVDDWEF", "assay": "heterotrimeric complex purified through GST-LKB1 from co-transfected 293 cells, colloidal blue gel and blots", "procedure": "as §1, §2"}}}
{"binder": "recombinant GST-LKB1:STRADα:MO25α complex (protein) chain 1: MDVADPEPLGLFSEGELMSVGMDTFIHRIDSTEVIYQPRRKRAKLIGKYLMGDLLGEGSYGKVKEVLDSETLCRRAVKILKKKKLRRIPNGEANVKKEIQLLRRLRHRNVIQLVDVLYNEEKQKMYMVMEYCVCGMQEMLDSVPEKRFPVCQAHGYFRQLIDGLEYLHSQGIVHKDIKPGNLLLTTNGTLKISDLGVAEALHPFAVDDTCRTSQGSPAFQPPEIANGLDTFSGFKVDIWSAGVTLYNITTGLYPFEGDNIYKLFENIGRGDFTIPCDCGPPLSDLLRGMLEYEPAKRFSIRQIRQHSWFRKKHPLAEALVPIPPSPDTKDRWRSMTVVPYLEDLHGRAEEEEEEDLFDIEDGIIYTQDFTVPGQVLEEEVGQNGQSHSLPKAVCVNGTEPQLSSKVKPEGRPGTANPARKVCSSNKIRRLSACKQQ chain 2: DYKDDDDKMSFLVSKPERIRRWVSEKFIVEGLRDLELFGEQPPGDTRRKTNDASSESIASFSKQEVMSSFLPEGGCYELLTVIGKGFEDLMTVNLARYKPTGEYVTVRRINLEACSNEMVTFLQGELHVSKLFNHPNIVPYRATFIADNELWVVTSFMAYGSAKDLICTHFMDGMNELAIAYILQGVLKALDYIHHMGYVHRSVKASHILISVDGKVYLSGLRSNLSMISHGQRQRVVHDFPKYSVKVLPWLSPEVLQQNLQGYDAKSDIYSVGITACELANGHVPFKDMPATQMLLEKLNGTVPCLLDTSTIPAEELTMSPSRSVANSGLSDSLTTSTPRPSNGDSPSHPYHRTFSPHFHHFVEQCLQRNPDARPSASTLLNHSFFKQIKRRASEALPELLRPVTPITNFEGSQSQDHSGIFGLVTNLEELEVDDWEF chain 3: MPFPFGKSHKSPADIVKNLKESMAVLEKQDISDKKAEKATEEVSKNLVAMKEILYGTNEKEPQTEAVAQLAQELYNSGLLSTLVADLQLIDFEGKKDVAQIFNNILRRQIGTRTPTVEYICTQQNILFMLLKGYESPEIALNCGIMLRECIRHEPLAKIILWSEQFYDFFRYVEMSTFDIASDAFATFKDLLTRHKLLSAEFLEQHYDRFFSEYEKLLHSENYVTKRQSLKLLGELLLDRHNFTIMTKYISKPENLKLMMNLLRDKSRNIQFEAFHVFKVFVANPNKTQPILDILLKNQAKLIEFLSKFQNDRTEDEQFNDEKTYLVKQIRDLKRPAQQEA", "values": [{"measurement": "Km (phosphorylation of the T-loop peptide)", "setting": "[1]", "result": "The Km for the peptide was estimated to be 1.80±0.48"}, {"measurement": "Vmax of phosphorylation of AMPKtide by the GST-LKB1-STRADα-MO25α complex", "setting": "[1]", "result": "Vmax: 23.43 ± 3.51 U/mg"}]}
{"binder": "N-terminal GST tagged wild type LKB1 (protein) MDVADPEPLGLFSEGELMSVGMDTFIHRIDSTEVIYQPRRKRAKLIGKYLMGDLLGEGSYGKVKEVLDSETLCRRAVKILKKKKLRRIPNGEANVKKEIQLLRRLRHRNVIQLVDVLYNEEKQKMYMVMEYCVCGMQEMLDSVPEKRFPVCQAHGYFRQLIDGLEYLHSQGIVHKDIKPGNLLLTTNGTLKISDLGVAEALHPFAVDDTCRTSQGSPAFQPPEIANGLDTFSGFKVDIWSAGVTLYNITTGLYPFEGDNIYKLFENIGRGDFTIPCDCGPPLSDLLRGMLEYEPAKRFSIRQIRQHSWFRKKHPLAEALVPIPPSPDTKDRWRSMTVVPYLEDLHGRAEEEEEEDLFDIEDGIIYTQDFTVPGQVLEEEVGQNGQSHSLPKAVCVNGTEPQLSSKVKPEGRPGTANPARKVCSSNKIRRLSACKQQ", "values": [{"measurement": "LKB1 activity (autophosphorylation and phosphorylation of MBP)", "setting": "[2]", "result": "LKB1 was only activated by STRADβ in the presence of MO25 isoforms"}, {"measurement": "LKB1 activity (autophosphorylation and phosphorylation of MBP)", "setting": "[3]", "result": "co-expression with STRADα induced an 4-fold increase in LKB1 activity"}, {"measurement": "Relative activation (MBP): 32P phosphorylation of MBP by affinity purified GST-LKB1-WT co-expressed with STRADα (lane 2), GST-LKB1 alone (lane 1) = 1", "setting": "[3]", "result": 3.9}]}
{"binder": "N-terminal Myc-tagged MO25β (other, also called Myc-MO25β; myc-MO25β) MEQKLISEEDLPLFSKSHKNPAEIVKILKDNLAILEKQDKKTDKASEEVSKSLQAMKEILCGTNEKEPPTEAVAQLAQELYSSGLLVTLIADLQLIDFEGKKDVTQIFNNILRRQIGTRSPTVEYISAHPHILFMLLKGYEAPQIALRCGIMLRECIRHEPLAKIILFSNQFRDFFKYVELSTFDIASDAFATFKDLLTRHKVLVADFLEQNYDTIFEDYEKLLQSENYVTKRQSLKLLGELILDRHNFAIMTKYISKPENLKLMMNLLRDKSPNIQFEAFHVFKVFVASPHKTQPIVEILLKNQPKLIEFLSSFQKERTDDEQFADEKNYLIKQIRDLKKTAP", "values": [{"measurement": "binding result", "setting": "Flag-tagged STRADβ", "result": "binds"}, {"measurement": "binding result", "setting": "Flag-tagged STRADα", "result": "binds"}]}
